Patent publication US20100129315A1

Target: human MN protein, entire extra-cellular domain with a C-terminal histag, expressed in HKB-11 cells (human) (UniProt Q16790)
Assay: method not restated (Biacore by context)

Kd: 5.3 nM
Substance: MN antibody G250, a humanized IgG1 antibody (Wilex)
